Measured values from paper PMC7849368 (Genes & Development, 2021).

Biological target: T1, Esc2, purified, as used in microscale thermophoresis (budding yeast, UniProt Q06340 1-456)
T1 sequence: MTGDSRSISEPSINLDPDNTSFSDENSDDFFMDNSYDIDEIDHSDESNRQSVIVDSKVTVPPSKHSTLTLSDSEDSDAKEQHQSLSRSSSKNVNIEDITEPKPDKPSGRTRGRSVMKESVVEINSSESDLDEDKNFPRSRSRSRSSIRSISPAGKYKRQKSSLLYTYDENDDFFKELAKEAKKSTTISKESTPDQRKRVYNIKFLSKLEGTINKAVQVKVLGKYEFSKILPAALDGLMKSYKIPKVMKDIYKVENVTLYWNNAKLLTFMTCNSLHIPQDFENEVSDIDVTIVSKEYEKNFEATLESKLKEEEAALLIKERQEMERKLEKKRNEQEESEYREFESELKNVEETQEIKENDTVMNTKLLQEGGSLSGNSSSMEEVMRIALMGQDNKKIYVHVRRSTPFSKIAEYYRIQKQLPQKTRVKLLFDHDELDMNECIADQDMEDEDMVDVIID
Assay: MST

B1: Ubc9, purified (enzyme)
chain: MSSLCLQRLQEERKKWRKDHPFGFYAKPVKKADGSMDLQKWEAGIPGKEGTNWAGGVYPITVEYPNEYPSKPPKVKFPAGFYHPNVYPSGTICLSILNEDQDWRPAITLKQIVLGVQDLLDSPNPNSPAQEPAWRSFSRNKAEYDKKVLLQAKQYSK
modifications: RED-tris-NTA dye on the His tag (MST only)
- Kd: 372 nM
